The target of assay [1] is Elongation factor 2 (EF-2) with glycine to arginine mutation at codon 705, in DPL cells (derived from PER.C6) (human) (UniProt P13639). Description: cell-based or functional assay.
For assay [2], the target named is Elongation factor 2 (EF-2), wild type, endogenous in PER.C6 and 293 cells (human) (UniProt P13639). Description: cell-based or functional assay.

The text below walks through data of US7582290.

In the case of “Diphtheria toxin (DT) (from UniProt P00588 33-567) (enzyme)”, in assay [1], the cell growth in the presence of DT (DPLR1 cells) is 100 pM, the cell survival in the presence of DT (DPLR3 cells) stood at 10 nM and the resistance of cells to DT (DPL cells) was found to be 1 nM. Further, in assay [2], the cell death in the presence of DT (293 wt cells) was determined as 100 pM; the cell death in the presence of DT (PER.C6 cells) turned out to be 100 pM; the cell death within 24 hrs in the presence of DT (PER.C6 and 293 cells) was determined as 10 pM.
